Columns and labels:
[1] = molecular target: T1, TSH receptor coated onto plastic tubes or ELISA plate wells (RSR Ltd) / detergent solubilised TSH receptor; assay: Scatchard analysis, 125I-IgG on TSH receptor coated tubes
T1 construct: also called TSHR coated tubes; TSH receptor coated tubes
Procedure: Unlabelled IgG or Fab in 50 μL of assay buffer and 50 μL of ¹²⁵I-labelled hMAb IgG or Fab (30,000 cpm in assay buffer) were incubated for 2 hours at room temperature with gentle shaking, washed twice with 1 mL of assay buffer and counted in a gamma counter.

[2] = molecular target: TSH receptor coated onto plastic tubes or ELISA plate wells (RSR Ltd) / detergent solubilised TSH receptor; assay: Scatchard analysis, TSH receptors coated onto plastic tubes

B1: hMAb TSHR1 IgG (antibody, V domains shown)
VH: QVQLVQSGAEVKKPGESLKISCRGSGYRFTSYWINWVRQLPGKGLEWMGRIDPTDSYTNYSPSFKGHVTVSADKSINTAYLQWSSLKASDTGMYYCARLEPGYSSTWSVNWGQGTLVTVSS
VL: LTVLTQPPSVSGAPRQRVTISCSGNSSNIGNNAVNWYQQLPGKAPKLLIYYDDQLPSGVSDRFSGSRSGTSASLAIRGLQSEDEADYYCTSWDDSLDSQLFGGGTRLTVLG
notes: also called human monoclonal TSH receptor autoantibody; TSMAb TSHR1 IgG
B1 was tested. Which Ka [1] did it give?
The Ka was 5e+10 M⁻¹.

B2: 9D33 (antibody, V domains shown)
VH: DVQIQQPGTELVKPGASVRLSCKASGYTFTTYWMHWVKQRPGQGLEWIGEIDPSDSYTNYNQKFKGKATLTVDKSSSTAYMHLSSLTSEDSAVYYCSRNYGSGYYFDYWGQGTTLTVSS
VL: GVEMTQSPAIMSASPGEKVTMTCSASSSVSYMHWYQQKSGTSPKRWIYDTSKLASGVPARFSGSGSGTSYSLTISSMETEDAATYYCQQWSSNPWTFGGGTKLEIK
notes: Mouse monoclonal IgG; also called 9D33 IgG; mouse monoclonal antibody to the TSHR (9D33)
How did the Ka [2] turn out when B2 was run?
The Ka was 2e+10 M⁻¹.

— US20060241289A1 (RSR, published 2006)
